Measured values reported in patent US12104181B2, “Compositions and methods for treating viral infections targeting TRIM7” (THE BOARD OF REGENTS OF THE UNIVERSITY OF TEXAS SYSTEM, priority 2021, dated 2024).

Tested on: coxsackievirus B3 (CVB3-GFP)
Type: cell-based
Settings: HeLa cells, replicate R1; for Percent Infected R1: GFP-positive cells within RFP-positive gate

B1: TRIM35: human RING type E3 ligase expressed from lentiviral vector (protein, UniProt Q9UPQ4 1-493, looked up)
E3 ubiquitin-protein ligase …: MERSPDVSPGPSRSFKEELLCAVCYDPFRDAVTLRCGHNFCRGCVSRCWEVQVSPTCPVCKDRASPADLRTNHTLNNLVEKLLREEAEGARWTSYRFSRVCRLHRGQLSLFCLEDKELLCCSCQADPRHQGHRVQPVKDTAHDFRAKCRNMEHALREKAKAFWAMRRSYEAIAKHNQVEAAWLEGRIRQEFDKLREFLRVEEQAILDAMAEETRQKQLLADEKMKQLTEETEVLAHEIERLQMEMKEDDVSFLMKHKSRKRRLFCTMEPEPVQPGMLIDVCKYLGSLQYRVWKKMLASVESVPFSFDPNTAAGWLSVSDDLTSVTNHGYRVQVENPERFSSAPCLLGSRVFSQGSHAWEVALGGLQSWRVGVVRVRQDSGAEGHSHSCYHDTRSGFWYVCRTQGVEGDHCVTSDPATSPLVLAIPRRLRVELECEEGELSFYDAERHCHLYTFHARFGEVRPYFYLGGARGAGPPEPLRICPLHISVKEELDG
For B1, the “Percent Infected R1” value was 66.3% and the “Z score R1” value was −0.284.

B2: TRIM40: human RING type E3 ligase expressed from lentiviral vector (protein, UniProt Q6P9F5 1-258, looked up)
E3 ubiquitin ligase TRIM40: MIPLQKDNQEEGVCPICQESLKEAVSTNCGHLFCRVCLTQHVEKASASGVFCCPLCRKPCSEEVLGTGYICPNHQKRVCRFCEESRLLLCVECLVSPEHMSHHELTIENALSHYKERLNRRSRKLRKDIAELQRLKAQQEKKLQALQFQVDHGNHRLEAGPESQHQTREQLGALPQQWLGQLEHMPAEAARILDISRAVTQLRSLVIDLERTAKELDTNTLKNAGDLLNRSAPQKLEVIYPQLEKGVSELLLQPPQKL
modifications: lentiviral expression
notes: human RING type E3 ligase expressed from lentiviral vector
For B2, the “Percent Infected R1” value was 62.8% and the “Z score R1” value was −0.328.

B3: TRIM44: human RING type E3 ligase expressed from lentiviral vector (protein, UniProt Q96DX7 1-344, looked up)
Tripartite motif-containing …: MASGVGAAFEELPHDGTCDECEPDEAPGAEEVCRECGFCYCRRHAEAHRQKFLSHHLAEYVHGSQAWTPPADGEGAGKEEAEVKVEQEREIESEAGEESESEEESESEEESETEEESEDESDEESEEDSEEEMEDEQESEAEEDNQEEGESEAEGETEAESEFDPEIEMEAERVAKRKCPDHGLDLSTYCQEDRQLICVLCPVIGAHQGHQLSTLDEAFEELRSKDSGGLKAAMIELVERLKFKSSDPKVTRDQMKMFIQQEFKKVQKVIADEEQKALHLVDIQEAMATAHVTEILADIQSHMDRLMTQMAQAKEQLDTSNESAEPKAEGDEEGPSGASEEEDT
modifications: lentiviral expression
notes: as for B2
With B3 the “Percent Infected R1” value was 61.7% and the “Z score R1” value was −0.342.

B4: TRIM37: human RING type E3 ligase expressed from lentiviral vector (protein, UniProt O94972 1-964, looked up)
E3 ubiquitin-protein ligase …: MDEQSVESIAEVFRCFICMEKLRDARLCPHCSKLCCFSCIRRWLTEQRAQCPHCRAPLQLRELVNCRWAEEVTQQLDTLQLCSLTKHEENEKDKCENHHEKLSVFCWTCKKCICHQCALWGGMHGGHTFKPLAEIYEQHVTKVNEEVAKLRRRLMELISLVQEVERNVEAVRNAKDERVREIRNAVEMMIARLDTQLKNKLITLMGQKTSLTQETELLESLLQEVEHQLRSCSKSELISKSSEILMMFQQVHRKPMASFVTTPVPPDFTSELVPSYDSATFVLENFSTLRQRADPVYSPPLQVSGLCWRLKVYPDGNGVVRGYYLSVFLELSAGLPETSKYEYRVEMVHQSCNDPTKNIIREFASDFEVGECWGYNRFFRLDLLANEGYLNPQNDTVILRFQVRSPTFFQKSRDQHWYITQLEAAQTSYIQQINNLKERLTIELSRTQKSRDLSPPDNHLSPQNDDALETRAKKSACSDMLLEGGPTTASVREAKEDEEDEEKIQNEDYHHELSDGDLDLDLVYEDEVNQLDGSSSSASSTATSNTEENDIDEETMSGENDVEYNNMELEEGELMEDAAAAGPAGSSHGYVGSSSRISRRTHLCSAATSSLLDIDPLILIHLLDLKDRSSIENLWGLQPRPPASLLQPTASYSRKDKDQRKQQAMWRVPSDLKMLKRLKTQMAEVRCMKTDVKNTLSEIKSSSAASGDMQTSLFSADQAALAACGTENSGRLQDLGMELLAKSSVANCYIRNSTNKKSNSPKPARSSVAGSLSLRRAVDPGENSRSKGDCQTLSEGSPGSSQSGSRHSSPRALIHGSIGDILPKTEDRQCKALDSDAVVVAVFSGLPAVEKRRKMVTLGANAKGGHLEGLQMTDLENNSETGELQPVLPEGASAAPEEGMSSDSDIECDTENEEQEEHTSVGGFHDSFMVMTQPPDEDTHSSFPDGEQIGPEDLSFNTDENSGR
modifications: lentiviral expression
notes: as for B2
In the case of B4, the “Percent Infected R1” value is reported as 58.8% and the “Z score R1” value is reported as −0.379.

B5: TRIM43: human RING type E3 ligase expressed from lentiviral vector (protein, UniProt Q96BQ3 1-446, looked up)
Tripartite motif-containing …: MDSDFSHAFQKELTCVICLNYLVDPVTICCGHSFCRPCLCLSWEEAQSPANCPACREPSPKMDFKTNILLKNLVTIARKASLWQFLSSEKQICGTHRQTKKMFCDMDKSLLCLLCSNSQEHGAHKHHPIEEAAEEHREKLLKQMRILWKKIQENQRNLYEEGRTAFLWRGNVVLRAQMIRNEYRKLHPVLHKEEKQHLERLNKEYQEIFQQLQRSWVKMDQKSKHLKEMYQELMEMCHKPDVELLQDLGDIVARSESVLLHMPQPVNPELTAGPITGLVYRLNRFRVEISFHFEVTNHNIRLFEDVRSWMFRRGPLNSDRSDYFAAWGARVFSFGKHYWELDVDNSCDWALGVCNNSWIRKNSTMVNSEDIFLLLCLKVDNHFNLLTTSPVFPHYIEKPLGRVGVFLDFESGSVSFLNVTKSSLIWSYPAGSLTFPVRPFFYTGHR
B5 was tested, and the “Percent Infected R1” value was 61.4% and the “Z score R1” value was −0.346.

B6: TRIM39: human RING type E3 ligase expressed from lentiviral vector (protein, UniProt Q9HCM9 1-518, looked up)
E3 ubiquitin-protein ligase …: MAETSLLEAGASAASTAAALENLQVEASCSVCLEYLKEPVIIECGHNFCKACITRWWEDLERDFPCPVCRKTSRYRSLRPNRQLGSMVEIAKQLQAVKRKIRDESLCPQHHEALSLFCYEDQEAVCLICAISHTHRAHTVVPLDDATQEYKEKLQKCLEPLEQKLQEITRCKSSEEKKPGELKRLVESRRQQILREFEELHRRLDEEQQVLLSRLEEEEQDILQRLRENAAHLGDKRRDLAHLAAEVEGKCLQSGFEMLKDVKSTLEKNIPRKFGGSLSTICPRDHKALLGLVKEINRCEKVKTMEVTSVSIELEKNFSNFPRQYFALRKILKQLIADVTLDPETAHPNLVLSEDRKSVKFVETRLRDLPDTPRRFTFYPCVLATEGFTSGRHYWEVEVGDKTHWAVGVCRDSVSRKGELTPLPETGYWRVRLWNGDKYAATTTPFTPLHIKVKPKRVGIFLDYEAGTLSFYNVTDRSHIYTFTDTFTEKLWPLFYPGIRAGRKNAAPLTIRPPTDWE
For B6, the “Percent Infected R1” value was 58.6% and the “Z score R1” value was −0.382.

B7: TRIM45: human RING type E3 ligase expressed from lentiviral vector (protein, UniProt Q9H8W5 1-580, looked up)
E3 ubiquitin-protein ligase …: MSENRKPLLGFVSKLTSGTALGNSGKTHCPLCLGLFKAPRLLPCLHTVCTTCLEQLEPFSVVDIRGGDSDTSSEGSIFQELKPRSLQSQIGILCPVCDAQVDLPMGGVKALTIDHLAVNDVMLESLRGEGQGLVCDLCNDREVEKRCQTCKANLCHFCCQAHRRQKKTTYHTMVDLKDLKGYSRIGKPILCPVHPAEELRLFCEFCDRPVCQDCVVGEHREHPCDFTSNVIHKHGDSVWELLKGTQPHVEALEEALAQIHIINSALQKRVEAVAADVRTFSEGYIKAIEEHRDKLLKQLEDIRAQKENSLQLQKAQLEQLLADMRTGVEFTEHLLTSGSDLEILITKRVVVERLRKLNKVQYSTRPGVNDKIRFCPQEKAGQCRGYEIYGTINTKEVDPAKCVLQGEDLHRAREKQTASFTLLCKDAAGEIMGRGGDNVQVAVVPKDKKDSPVRTMVQDNKDGTYYISYTPKEPGVYTVWVCIKEQHVQGSPFTVMVRRKHRPHSGVFHCCTFCSSGGQKTARCACGGTMPGGYLGCGHGHKGHPGHPHWSCCGKFNEKSECTWTGGQSAPRSLLRTVAL
For B7, the “Percent Infected R1” value was 63.9% and the “Z score R1” value was −0.314.

B8: TRIM46: human RING type E3 ligase expressed from lentiviral vector (protein, UniProt Q7Z4K8 1-759, looked up)
Tripartite motif-containing …: MAEGEDMQTFTSIMDALVRISTSMKNMEKELLCPVCQEMYKQPLVLPCTHNVCQACAREVLGQQGYIGHGGDPSSEPTSPASTPSTRSPRLSRRTLPKPDRLDRLLKSGFGTYPGRKRGALHPQVIMFPCPACQGDVELGERGLAGLFRNLTLERVVERYRQSVSVGGAILCQLCKPPPLEATKGCTECRATFCNECFKLFHPWGTQKAQHEPTLPTLSFRPKGLMCPDHKEEVTHYCKTCQRLVCQLCRVRRTHSGHKITPVLSAYQALKDKLTKSLTYILGNQDTVQTQICELEEAVRHTEVSGQQAKEEVSQLVRGLGAVLEEKRASLLQAIEECQQERLARLSAQIQEHRSLLDGSGLVGYAQEVLKETDQPCFVQAAKQLHNRIARATEALQTFRPAASSSFRHCQLDVGREMKLLTELNFLRVPEAPVIDTQRTFAYDQIFLCWRLPPHSPPAWHYTVEFRRTDVPAQPGPTRWQRREEVRGTSALLENPDTGSVYVLRVRGCNKAGYGEYSEDVHLHTPPAPVLHFFLDSRWGASRERLAISKDQRAVRSVPGLPLLLAADRLLTGCHLSVDVVLGDVAVTQGRSYWACAVDPASYLVKVGVGLESKLQESFQGAPDVISPRYDPDSGHDSGAEDATVEASPPFAFLTIGMGKILLGSGASSNAGLTGRDGPTAGCTVPLPPRLGICLDYERGRVSFLDAVSFRGLLECPLDCSGPVCPAFCFIGGGAVQLQEPVGTKPERKVTIGGFAKLD
modifications: lentiviral expression
notes: as for B2
With B8 the “Percent Infected R1” value was 60.8% and the “Z score R1” value was −0.354.

B9: TRIM38: human RING type E3 ligase expressed from lentiviral vector (protein, UniProt O00635 1-465, looked up)
E3 ubiquitin-protein ligase …: MASTTSTKKMMEEATCSICLSLMTNPVSINCGHSYCHLCITDFFKNPSQKQLRQETFCCPQCRAPFHMDSLRPNKQLGSLIEALKETDQEMSCEEHGEQFHLFCEDEGQLICWRCERAPQHKGHTTALVEDVCQGYKEKLQKAVTKLKQLEDRCTEQKLSTAMRITKWKEKVQIQRQKIRSDFKNLQCFLHEEEKSYLWRLEKEEQQTLSRLRDYEAGLGLKSNELKSHILELEEKCQGSAQKLLQNVNDTLSRSWAVKLETSEAVSLELHTMCNVSKLYFDVKKMLRSHQVSVTLDPDTAHHELILSEDRRQVTRGYTQENQDTSSRRFTAFPCVLGCEGFTSGRRYFEVDVGEGTGWDLGVCMENVQRGTGMKQEPQSGFWTLRLCKKKGYVALTSPPTSLHLHEQPLLVGIFLDYEAGVVSFYNGNTGCHIFTFPKASFSDTLRPYFQVYQYSPLFLPPPGD
modifications: lentiviral expression
notes: as for B2
For B9, the “Percent Infected R1” value was 60.7% and the “Z score R1” value was −0.355.
